Reference: patent US20250049953A1, “TREATMENT AND METHOD FOR INHIBITING LATE NA CURRENT” (THE TRUSTEES OF COLUMBIA UNIVERSITY IN THE CITY OF NEW YORK, priority 2022, published 2025)

What was measured:
[1] = tested on: freshly dissociated aMVM; format: in vitro ADME, mouse
Description: The peptide encoding FixR-cpp was chemically synthesized by Genscript (98% purity) to contain the cell permeating viral TAT sequence in the amino-terminus: […] (SEQ ID NO. 2). The amino terminus of the peptide contained a FITC fluorophore to visualize cell uptake. The peptide was resuspended in DMSO. Flow cytometric assays were performed to quantify FixR cellular uptake in both HEK293 cells and freshly dissociated aMVM. HEK293 cells were cultured in 12 well plates and incubated with different concentrations of FixR-cpp for 2 hours and stained for cell death detection using LIVE/DEAD™ Fixable Far Red Dead Cell Stain Kit (ThermoFisher Scientific, L10120). Similarly, non-TG and IQ/AA^tg freshly dissociated aMVM were incubated with various concentrations of FixR-cpp for 2 hours in Tyrode's solution (138 mM NaCl, 4 mM KCl, 1 mM MgCl2, 10 mM HEPES (pH 7.4 using NaOH), 0.2 mM NaHPO4 5 mM D-glucose, 1 mM CaCl2). For cellular uptake measurements, we utilized an LSR II (BD Biosciences) flow cytometer equipped with 405 nm, 488 nm, and 633 nm lasers for excitation and 18 different emission channels. Forward and side scatter signals were detected and used to gate for single and healthy cells. […] Histograms from the Fluorescein 5(6)-isothiocyanate (FITC) and Allophycocyanin (APC) channels for the single-cell population were obtained and analyzed using FlowJo (version X, FlowJo LLC).

[2] = tested on: aMVMs from IQ/AA mutant mice; experiment: Multichannel recordings of INa,L in cultured aMVM from IQ/AA transgenic mice; format: cell-based, mouse; settings: aMVM transduced with FHF2-shRNA, incubation with FixR-cpp (2 hour)
Text: As FHF2 is natively expressed in the murine heart, we considered whether manipulation of ambient FHF levels in adult mouse ventricular myocytes (aMVM) tunes INa,L. To do so, we utilized our recently published transgenic mouse models expressing (1) pseudo-wild-type NaV1.5 (pWT), and (2) IQ/AA mutant channels that abolish the interaction of CaM, a de facto channel subunit involved in the modulation of late Na current. […] Whether this discrepancy stems from INa,L modulation by endogenous FHF in cardiomyocytes is not fully established. Accordingly, we undertook cell-attached multichannel recordings to measure changes in the magnitude of INa,L upon downregulating FHF2 levels using shRNA. […] Of note, the amplitude of INa,L here is quantified as Rpersist, the ratio of the average open probability (PO) following 50 ms of depolarization and the peak PO. This approach allows robust quantification of the likelihood of late channel openings, while still maintaining the cytosolic milieu and intact signaling. Downregulation of FHF2 by adenovirally transduced shRNA had no effect on INa,L of pWT mice (FIGS. 1D and 1H), as expected given the strong inactivation of wild-type NaV1.5. […] Expression of scrambled shRNA had no effect on INa,L in aMVMs from both pWT and IQ/AA mutant mice (FIGS. IF-1H). Similar to pWT, INa,L of non-transgenic mice was also insensitive to FHF2 manipulation (FIG. 1H and 7A-7D). […]

[3] = tested on: NaV1.5; experiment: Late Na current inhibition across NaV1.5 channelopathic mutations and channel phosphorylation; format: cell-based, human; settings: various disease linked NaV1.5 channelopathic mutations and channel phosphorylation, in nearly all cases
Description: HEK293 cells (ATCC CRL1573) were cultured on glass coverslips in 60-mm dishes and transfected using the Ca^2+-phosphate method as previously described. For electrophysiology experiments, we co-transfected 4-8 μg of cDNA encoding the desired channel variant with 4 μg of YFP, and 1 μg of simian virus 40 T-antigen. For experiments evaluating effect of FHF, we transfected the relevant FHF variant at 1:1 ratio as the α-subunit. For experiments considering competition between FHF1/2 isoforms, we co-transfected FHF1B and FHF2S variants at specified ratios (ranging from 1:1 to 1:10). The culture media was replaced following 4 h of transfection. Electrophysiology recordings were then performed at room temperature 1-2 days following transfection.
Multichannel records were obtained in the on-cell configuration with either HEK293 cells or in aMVM as in our previous study. The pipette contained (in mM): 140 NaCl; 10 HEPES; 0.5 CaCl2; at 300 mOsm, adjusted with tetraethylammonium methanesulfonate; and pH 7.4 adjusted with tetraethylammonium hydroxide. To zero membrane potential, the bath contained (in mM): 132 K^+-glutamate; 5 KCl; 5 NaCl; 3 MgCl; 2 EGTA; 10 glucose; 20HEPES; at 300 mOsm adjusted with glucose; and pH 7.4 adjusted with NaOH. Data were acquired at room temperature using the integrating mode of an Axopatch 200A amplifier (Axon Instruments, Molecular Devices). […]

[4] = target: T1, NaV1.5 S1904L mutant channel (Homo sapiens, UniProt Q14524, S1904L); experiment: Multichannel recordings of late Na current, NaV1.5 S1904L; format: cell-based; settings: co-expression
T1 construct: expressed in transfected cells; host or cells: HEK293 (ATCC CRL1573)
Description: HEK293 cells (ATCC CRL1573) were cultured on glass coverslips in 60-mm dishes and transfected using the Ca^2+-phosphate method as previously described. For electrophysiology experiments, we co-transfected 4-8 μg of cDNA encoding the desired channel variant with 4 μg of YFP, and 1 μg of simian virus 40 T-antigen. […] The culture media was replaced following 4 h of transfection. Electrophysiology recordings were then performed at room temperature 1-2 days following transfection.
Multichannel records were obtained in the on-cell configuration with either HEK293 cells or in aMVM as in our previous study. The pipette contained (in mM): 140 NaCl; 10 HEPES; 0.5 CaCl2; at 300 mOsm, adjusted with tetraethylammonium methanesulfonate; and pH 7.4 adjusted with tetraethylammonium hydroxide. To zero membrane potential, the bath contained (in mM): 132 K^+-glutamate; 5 KCl; 5 NaCl; 3 MgCl; 2 EGTA; 10 glucose; 20HEPES; at 300 mOsm adjusted with glucose; and pH 7.4 adjusted with NaOH. Data were acquired at room temperature using the integrating mode of an Axopatch 200A amplifier (Axon Instruments, Molecular Devices). Patch pipettes (3-10 MΩ) were pulled from ultra-thick-walled borosilicate glass (BF200-116-10; Sutter Instruments) using horizontal puller (P-97, Sutter Instruments), fire polished with a microforge (Narishige), and coated with Sylgard™ brand silicone elastomer (Dow Corning). Elementary currents were low-pass filtered at 2 kHz with a four-pole Bessel filter and digitized at 200 kHz with an ITC-18 unit (Instrutech), controlled by custom MATLAB software (Mathworks). For each pulse, we obtained P/8 leak pulses. Leak subtraction was performed using an automated algorithm which fit the kinetics of the leak current or the capacitive transient with convex optimization with L1 regularization.

Substance | enhancement in fluorescence intensity ([1]; 10 μM, 2 hours, flow-cytometer) [fold] | uptake into freshly dissociated cardiomyocytes ([1]; epifluorescence imaging) | reduction in Rpersist [2] [fold] | inhibition of INa,L [3] [fold] | change in INa,L [4]
FixR-cpp: FixR fused to HIV-1 TAT transduction domain, YGRKKRRQRRRAAAIASSLIRQKRQARESNSERVSASKRRSSPSKG (SEQ ID NO: 2) | ~150 | robust uptake | ~10 |  | 
FixR: minimal 39-amino-acid FHF1A amino-terminal effector domain, MAAAIASSLIRQKRQARESNSDRVSASKRRSSPSKDGRS (SEQ ID NO: 4), expressed as peptide |  |  |  | ~10 | inhibits INa,L
